Legend:
VEGF165 (293-VE) [1] = molecular target: T1, VEGF165 (293-VE) (UniProt P15692-4 27-191); experiment: solution binding: VEGF165 incubated 45 min at 37 C with titrated VID, free VEGF measured by ELISA (Human VEGF DuoSet kit)
T1 construct: the UniProt canonical entry is a longer isoform; also called VEGF-A
Experimental: (§1) After incubation, free VEGF was detected using the Human VEGF DuoSet ELISA Development Kit (R&D Systems Catalog No. DY293B) according to the manufacturer's instructions. The data was analyzed by sigmoidal curve fitting using Prism 4.

VEGF165 (293-VE) [2] = molecular target: T1, VEGF165 (293-VE); experiment: solution binding: about 40 pM VEGF165 incubated with the protein, free VEGF read by DuoSet ELISA
Experimental: as §1

T1 sequence (P15692 other isoform, or with tags, fused parts or gaps limits assumed): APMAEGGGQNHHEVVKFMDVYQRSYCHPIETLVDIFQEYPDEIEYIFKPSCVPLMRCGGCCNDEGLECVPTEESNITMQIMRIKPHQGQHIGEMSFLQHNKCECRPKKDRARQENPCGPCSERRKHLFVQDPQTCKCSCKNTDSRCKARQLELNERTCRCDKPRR

B1: VID (fragment of ACVP-1 wherein the VID has the Fc domain fused to its C-terminus) (Fc fusion)
chain: GRPFVEMYSEIPEIIHMTEGRELVIPCRVTSPNITVTLKKFPLDTLIPDGKRIIWDSRKGFIISNATYKEIGLLTCEATVNGHLYKTNYLTHRQTNTIIDVVLSPSHGIELSVGEKLVLNCTARTELNVGIDFNWEYPSSKHQHKKLVNRDLKTQSGSEMKKFLSTLTIDGVTRSDQGLYTCAASSGLMTKKNSTFVRVHEK
notes: not shown: human IgG1 Fc region as in ACVP-1
- EC50 (VEGF165 (293-VE) [1]): 0.0731 nM
- EC50 (VEGF165 (293-VE) [2]): ~0.7 nM
